Reference: patent publication US20140212431A1, “PCSK9-BINDING POLYPEPTIDES AND METHODS OF USE” (Genentech, Inc., priority 2011, published 2014)

Legend:
[1] = target: T1, PCSK9 (Homo sapiens, UniProt Q8NBP7); assay: spot phage ELISA of EGF(A)-displaying phage clones against biotinylated PCSK9; assay type: binding; conditions: compared to wild type
T1 construct: His8 (C); made in house; host or cells: CHO cells, transient, pRK5 vector, purified from conditioned media
Description: “s/n ratio” refers to signal:noise ratio, wherein “signal” is the spot phage ELISA signal detected against biotinylated PCSK9 captured by NeutrAvidin coated on the 384-well MaxiSorp™ plate; “noise” is the ELISA signal against NeutrAvidin alone.
After four rounds of binding selection, individual phage clones were picked and inoculated into 450 μl 2YT media containing 50 μg/ml carbenecillin and M13-KO7 helper phage in 96-well blocks, which were grown at 37° C. for overnight. The supernatant was analyzed with spot phage ELISA as follows: Biotinylated PCSK9 was captured to NeutrAvidin-coated 384-well MaxiSorp™ immunoplates and phage supernatant diluted (1:3) with PBT buffer was added to the wells. The plates were washed and bound phage was detected with anti-M13-HRP followed by TMB substrate. In these assays, phage binding to NeutrAvidin alone was tested in parallel to assess background binding. Clones whose binding signals for PCSK9 were more than 4 times higher than to NeutrAvidin (background) were considered positive. Positive clones were subjected to DNA sequence analysis.

[2] = target: T2, PCSK9 binding to LDLR (Homo sapiens, UniProt Q8NBP7); assay: competition binding ELISA (biotinylated PCSK9 binding to coated rLDLR); conditions: Fc fusion protein; average ±SD of three experiments; read-out: IC50, inhibition of PCSK9 binding to LDLR
T2 construct: His8 (C); biotin (chemical, Sulfo-NHS); host or cells: PCSK9: CHO cells, transient; LDLR extracellular domain purchased
Description: The blocking activity of EGF peptides and EGF-Fc fusion proteins was determined by using a competition binding ELISA. Wells of 384 well MaxiSorp™ plates (Nalge Nunc International; Rochester, N.Y.) were coated overnight at 4° C. with 1 μg/mL of recombinant human LDLR extracellular domain (rLDLR) (R&D Systems; Minneapolis, Minn.) in coating buffer (50 mM sodium carbonate, pH 9.6). Then 0.5 μg/ml of biotinylated PCSK9 in assay buffer (25 mM HEPES, pH 7.2, 150 mM NaCl, 0.2 mM CaCl2, 0.1% BSA, 0.05% Tween®20) was mixed with an equal volume of serially diluted EGF peptides (0.017-6000 nM) or EGF-Fc (0.034-6000 nM) and incubated for 30 min. The solutions were added to rLDLR coated plates and incubated for 2 h. Bound biotinylated rPCSK9 was detected by sequential additions of streptavidin-horseradish peroxidase (GE Healthcare; Buckinghamshire, UK) and substrate 3, 3′, 5, 5′ tetramethyl benzidine (TMBE 1000, Moss; Pasadena, Md.). The mean absorbance values from duplicate wells were plotted as a function of antibody concentration and the data were fitted to a four parameter equation for each antibody using KaleidaGraph (Synergy Software; Reading, Pa.).

[3] = system: liver LDLR; assay: rescue of liver LDLR upon treatment with PCSK9 in a mouse model (immuno-blotting); assay type: in vivo; conditions: mice, 60 mg/kg i.v. 2 h before 30 μg PCSK9 i.v., liver after 1 h
Description: Mice were injected with vehicle (V), EGF-Fc (WT) or EGF66-Fc (MUT) followed by a bolus injection of recombinant human PCSK9 (30 μg/mouse). Livers were collected after 1 h and LDLR quantified by immuno-blotting. Each lane represents the pooled liver samples of three mice. The band intensities were quantified, normalized to transferring receptor contents and expressed as fraction of the untreated group (=1.0).
To determine whether increased affinity and cell efficacy could translate into improved therapeutic potential, we compared the effects of EGFwt-Fc and EGF66-Fc in rescuing liver LDLR upon treatment with PCSK9 in a mouse model. Eight weeks old male C57BL/6 mice were purchased from approved vendor and housed for 2 weeks before starting the experiment. […]
Approximately 200 mg of each liver were homogenized in Extraction Buffer 1 supplemented with Protease Inhibitor Cocktail (ProteoExtract® Native Membrane Protein Extraction Kit, Cat. No. 444810, Calbiochem) using the TissueLyser (Qiagen) according to manufacturer's instructions. […] After 30 min of gentle agitation at 4° C., the samples were centrifuged and the supernatants containing the membrane proteins were quantified using the Bradford assay. […]
Mice were first injected with vehicle, EGFwt-Fc and EGF66-Fc followed by a bolus of recombinant human PCSK9 (30 μg/mouse) and livers were collected and analyzed 1 h later. […]

[4] = system: PCSK9-mediated LDLR degradation; assay: LDLR degradation assay with HepG2 cells (FACS of cell surface LDLR); assay type: cell-based, human; conditions: HepG2, 15 μg/ml PCSK9, 4 h, highest concentration tested 20 μM
Description: Values are the average ±SD of three independent experiments.
HepG2 cells (ATCC; Manassas, Va.) were seeded into 48 well plates (Corning; Corning, N.Y.) at 1×10^5 cells per well in high glucose medium (DMEM, Gibco; Carlsbad, Calif.) containing 2 mM glutamine (Sigma), penicillin/streptomycin (Gibco) and 10% FBS (Sigma) and incubated overnight. Then the medium was changed to DMEM containing 10% lipoprotein deficient serum (LPDS, Intracel; Frederick, Md.). After 24 h, 15 μg/ml PCSK9 was mixed with serially diluted EGFwt-Fc and EGF66-Fc fusion proteins, added to the cells and incubated at 37° C. for 4 h. Cells were rinsed with PBS and detached using 2.5 mM EDTA (EMD; Gibbstown, N.J.). After centrifugation, the resuspended cells were incubated with 1:20 anti-LDLR antibody (Progen Biotechnik; Heidelberg, Germany) on ice for 15 min. The samples were then washed with PBS and incubated with 1:200 diluted goat anti mouse IgG Alexa Fluor® 488 (Invitrogen; Carlsbad, Calif.) on ice for 15 min. After two PBS washes cells were resuspended in PBS containing 10 μg/ml of propidium iodide and analyzed on a dual laser flow cytometer (FACScan, Becton Dickinson; Franklin Lakes, N.J.). Relative fluorescence units (RFUs) were used to quantify LDLR expression levels on the HepG2 cell surface. Cell surface LDLR levels were expressed as percent of LDLR levels measured in the absence of PCSK9 (=control).

T1 sequence (Q8NBP7 153-692): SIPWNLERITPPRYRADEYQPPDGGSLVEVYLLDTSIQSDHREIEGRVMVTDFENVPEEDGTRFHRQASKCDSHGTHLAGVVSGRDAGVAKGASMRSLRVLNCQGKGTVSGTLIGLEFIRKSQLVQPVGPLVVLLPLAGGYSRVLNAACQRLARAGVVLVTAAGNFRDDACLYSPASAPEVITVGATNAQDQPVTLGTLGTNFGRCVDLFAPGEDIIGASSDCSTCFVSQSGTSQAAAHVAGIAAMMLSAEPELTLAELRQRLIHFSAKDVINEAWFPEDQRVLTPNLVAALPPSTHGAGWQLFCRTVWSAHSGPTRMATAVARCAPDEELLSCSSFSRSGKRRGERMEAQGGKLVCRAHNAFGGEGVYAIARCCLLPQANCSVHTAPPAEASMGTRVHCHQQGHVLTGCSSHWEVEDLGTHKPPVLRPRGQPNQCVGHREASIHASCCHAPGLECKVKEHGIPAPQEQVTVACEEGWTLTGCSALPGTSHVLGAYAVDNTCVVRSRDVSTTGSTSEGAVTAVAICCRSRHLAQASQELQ
T2 sequence (Q8NBP7 153-692): as above
T2 sequence (Q8NBP7 31-152 partner limits assumed): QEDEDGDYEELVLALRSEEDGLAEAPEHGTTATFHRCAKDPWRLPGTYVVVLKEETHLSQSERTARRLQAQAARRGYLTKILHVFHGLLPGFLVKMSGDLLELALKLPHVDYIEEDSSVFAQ

EGF50: phage-displayed EGF(A) clone with single mutation at N309 to Arg
binding of phage-displayed clone to PCSK9 (in words) [1]: moderate increase of binding

EGF52: EGF(A) variant: Asp299 to Ser, Asn301 to Leu, Asn309 to Arg or Lys, Asp310 to Lys; phage clone and synthetic peptide
IC50 [2]: 0.7 ± 0.3 nM

EGFwt-Fc: wild type EGF(A) domain of LDLR fused via linker GGGSGAAQVTNKTHT to Fc domain of human IgG1 [reference compound]
liver LDLR level rescued, % of control levels [3]: less than 50% | LDLR surface levels, percent of control levels measured in the absence of PCSK9 [4]: 56%
